Test system: Escherichia coli TOP10
Assay: shrunken log2 fold change of peptide-encoding DNA abundance (4.5 h post-induction vs induction); higher = less antimicrobial activity (less host growth inhibition)
Conditions: time post-induction: 4.5 h; library: site-saturation at positions 5, 18, 19, 20
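Also: peptides expressed intracellularly from a pBAD plasmid library in pooled LB shake-flask culture, induced with 0.3% L-arabinose, DNA abundance read by NGS, three biological replicates, DESeq2 with apeglm shrinkage.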

Sequence	shrunken log2 fold change
RRIRARPPRLPRPRPRPKNYPRP	-0.279
RRIRFRPPRLPRPRPRPKDHPRP	-0.179
RRIRNRPPRLPRPRPRPYLQPRP	-0.00906
RRIRMRPPRLPRPRPRPKQVPRP	0.0554
RRIRDRPPRLPRPRPRPTHEPRP	1.09
RRIRQRPPRLPRPRPRPQIKPRP	-0.498
RRIRERPPRLPRPRPRPGHDPRP	-0.449
RRIRHRPPRLPRPRPRPDADPRP	0.0435
RRIRFRPPRLPRPRPRPNGFPRP	0.000958
RRIRVRPPRLPRPRPRPDGNPRP	-0.189
RRIRHRPPRLPRPRPRPNPWPRP	-0.248
RRIRMRPPRLPRPRPRPNEFPRP	0.0287
RRIRLRPPRLPRPRPRPLGVPRP	0.0325
RRIRARPPRLPRPRPRPGWMPRP	-0.168
RRIRGRPPRLPRPRPRPCCWPRP	0.878
RRIRVRPPRLPRPRPRPFCIPRP	-0.447
RRIRYRPPRLPRPRPRPVKGPRP	-0.015
RRIRERPPRLPRPRPRPFVYPRP	-0.123
RRIRPRPPRLPRPRPRPRMDPRP	0.176
RRIRMRPPRLPRPRPRPLLKPRP	2.7
RRIRLRPPRLPRPRPRPSSMPRP	-0.179
RRIRHRPPRLPRPRPRPPNKPRP	-0.171
RRIRQRPPRLPRPRPRPMKEPRP	-0.0272
RRIRVRPPRLPRPRPRPGMNPRP	-0.145
RRIRPRPPRLPRPRPRPQFDPRP	-0.0475

Sequence	shrunken log2 fold change
RRIRHRPPRLPRPRPRPTSAPRP	0.0939
RRIRYRPPRLPRPRPRPHCNPRP	-0.366
RRIRFRPPRLPRPRPRPLKCPRP	-0.189
RRIRIRPPRLPRPRPRPEHSPRP	0.0398
RRIRWRPPRLPRPRPRPCWIPRP	-0.072
RRIRRRPPRLPRPRPRPPIWPRP	2.59
RRIRWRPPRLPRPRPRPWLWPRP	0.242
RRIRVRPPRLPRPRPRPKAEPRP	-0.00229
RRIRERPPRLPRPRPRPKTYPRP	-0.771
RRIRYRPPRLPRPRPRPPILPRP	-0.498
RRIRARPPRLPRPRPRPPILPRP	-0.261
RRIRHRPPRLPRPRPRPSLVPRP	-0.264
RRIRNRPPRLPRPRPRPCDVPRP	0.0235
RRIRFRPPRLPRPRPRPYVKPRP	-0.787
RRIRARPPRLPRPRPRPLWKPRP	0.121
RRIRCRPPRLPRPRPRPTIVPRP	-0.0931
RRIRHRPPRLPRPRPRPTLCPRP	-0.134
RRIRMRPPRLPRPRPRPWHYPRP	-0.327
RRIRFRPPRLPRPRPRPFVVPRP	-0.219
RRIRYRPPRLPRPRPRPRNVPRP	-0.324
RRIRPRPPRLPRPRPRPYVHPRP	-0.356
RRIRDRPPRLPRPRPRPHPDPRP	-0.116
RRIRVRPPRLPRPRPRPEDEPRP	0.138
RRIRTRPPRLPRPRPRPPKRPRP	0.302
RRIRERPPRLPRPRPRPGHHPRP	-0.261

Sequence	shrunken log2 fold change
RRIRNRPPRLPRPRPRPKDPPRP	0.0665
RRIRNRPPRLPRPRPRPTMWPRP	-0.0923
RRIRYRPPRLPRPRPRPFQTPRP	-0.0251
RRIRYRPPRLPRPRPRPVNFPRP	0.00408
RRIRRRPPRLPRPRPRPATVPRP	-0.037
RRIRWRPPRLPRPRPRPEVDPRP	1.87
RRIRARPPRLPRPRPRPWVDPRP	-0.0331
RRIRKRPPRLPRPRPRPNYVPRP	-0.087
RRIRGRPPRLPRPRPRPGVWPRP	1.22
RRIRERPPRLPRPRPRPIPPPRP	0.0452
RRIRRRPPRLPRPRPRPANCPRP	0.00326
RRIRCRPPRLPRPRPRPFCKPRP	-0.0692
RRIRYRPPRLPRPRPRPMRVPRP	0.135
RRIRLRPPRLPRPRPRPDFYPRP	-0.324
RRIRPRPPRLPRPRPRPDMKPRP	-0.417
RRIRHRPPRLPRPRPRPCRYPRP	-0.0657
RRIRTRPPRLPRPRPRPKWYPRP	-0.468
RRIRHRPPRLPRPRPRPGVNPRP	-0.000777
RRIRMRPPRLPRPRPRPTNTPRP	0.176
RRIRDRPPRLPRPRPRPSMIPRP	-0.162
RRIRMRPPRLPRPRPRPDTDPRP	0.0472
RRIRMRPPRLPRPRPRPMNDPRP	0.25
RRIRVRPPRLPRPRPRPNHIPRP	-0.651
RRIRHRPPRLPRPRPRPEMHPRP	0.0592
RRIRNRPPRLPRPRPRPPCFPRP	-0.00581

— the supplement of paper PMC9112550, “Optimization of the antimicrobial peptide Bac7 by deep mutational scanning” (BMC Biology, 2022)
